Where a chain is given by its changes, count along the chain named. Names and notes keep the numbering of the source. Like-named read-outs stand apart in the source and are kept apart here. One block for each binder: values may come before it.
Legend:
[1] = target: T1, histidine-tagged human Siglec-7 (NovoProtein) (human, UniProt Q9Y286 19-353); test: BLI (ForteBio), antibody captured
T1 construct: Bought protein; also called recombinant human Siglec-7; recombinant Siglec-7; not shown: histidine tag
Description: In this assay, the humanized antibodies were compared directly to S7AB. Briefly, the antibodies were captured on anti-human or anti-mouse IgG Fc Biosensors (Pall ForteBio). Varying concentrations (0-100 nM) of histidine-tagged human Siglec-7 (NovoProtein) were then bound to the captured anti-Siglec-7 surface (200 s association time, 900 s dissociation time). Multi-concentration kinetic analysis was performed using a 1:1 interaction model to extract association and dissociation rate constants (kₐ and kd, respectively) for each antibody. Apparent affinity constants (KD) were calculated from the ratio kd/kₐ.

[2] = target: T2, human Siglec-7 on primary human monocyte-derived dendritic cells (human, UniProt Q9Y286 19-467); test: flow cytometry, primary human dendritic cells
T2 construct: Endogenous Siglec-7 on dendritic cells differentiated from monocytes of healthy human donors
Description: The 12 humanized antibodies of S7AB were evaluated for binding to primary dendritic cells by flow cytometry. Monocytes were isolated from blood from healthy human donors using the RosetteSep™ monocyte isolation antibody cocktail (StemCell Technologies). The isolated monocytes were differentiated into dendritic cells with 100 ng/mL GM-CSF and 100 ng/mL IL-4 (Peprotech). Dendritic cells were incubated with dilutions of the anti-Siglec-7 antibodies for 30 minutes on ice in the dark, followed by a 30-minute incubation with a fluorescently-conjugated anti-human IgG secondary antibody. Cells were washed twice in FACS buffer (PBS+2% FBS, 2 mM EDTA), and flow cytometry was performed on a BD FACS Canto. Data were analyzed using FlowJo software (Ashland, Oreg.).

[3] = target: T2, human Siglec-7 on primary human …; test: cell-based or functional assay
[4] = target: T1, histidine-tagged human Siglec-7 …; test: BLI, antibody captured
Procedure, shortened: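 Antibodies captured on anti-human or anti-mouse IgG Fc biosensors; His-tagged human Siglec-7 flowed at 0–100 nM (200 s association, 900 s dissociation). ka and kd from 1:1 multi-concentration fit; apparent KD = kd/ka.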

[5] = target: T2, human Siglec-7 on primary human …; test: cell-based or functional assay; remark: listed apart in the source
[6] = target: T2, human Siglec-7 on primary human …; test: cell-based or functional assay; remark: listed apart in the source

T1 sequence (Q9Y286 19-353 limits assumed): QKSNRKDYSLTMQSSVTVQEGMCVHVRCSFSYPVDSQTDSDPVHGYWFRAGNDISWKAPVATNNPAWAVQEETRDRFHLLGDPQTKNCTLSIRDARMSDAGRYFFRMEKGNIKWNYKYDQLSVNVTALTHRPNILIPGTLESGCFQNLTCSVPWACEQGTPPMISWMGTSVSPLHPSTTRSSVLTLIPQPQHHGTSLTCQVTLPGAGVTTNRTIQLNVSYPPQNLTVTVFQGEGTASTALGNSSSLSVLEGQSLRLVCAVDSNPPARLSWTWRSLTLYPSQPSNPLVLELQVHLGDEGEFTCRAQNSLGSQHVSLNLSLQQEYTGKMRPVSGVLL
T2 sequence (Q9Y286 19-467): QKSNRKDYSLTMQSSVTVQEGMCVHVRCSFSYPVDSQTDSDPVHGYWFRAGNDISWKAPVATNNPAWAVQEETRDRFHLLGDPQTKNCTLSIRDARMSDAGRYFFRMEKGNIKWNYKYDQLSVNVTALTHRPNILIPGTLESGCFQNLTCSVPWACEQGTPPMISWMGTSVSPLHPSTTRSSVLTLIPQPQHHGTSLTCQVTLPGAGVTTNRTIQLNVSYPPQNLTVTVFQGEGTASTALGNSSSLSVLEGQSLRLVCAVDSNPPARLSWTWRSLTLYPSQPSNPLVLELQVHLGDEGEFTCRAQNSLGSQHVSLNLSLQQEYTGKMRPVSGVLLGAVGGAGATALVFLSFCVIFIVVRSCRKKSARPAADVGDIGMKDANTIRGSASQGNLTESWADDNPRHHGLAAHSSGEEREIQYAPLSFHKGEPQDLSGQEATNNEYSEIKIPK

B1: S7AB (antibody, V domains shown)
VH: QVHLQQSGPELVKPGASVKISCKASGYAFTNCWMNWVRQRPGKGLDWIGRIFPGNGHTNYSGKFKDKATLTEDKSSSTAYMQLSSLTSEDSAVYFCARDYSDYYFDYWGQGTTLTVSS
VL: DVQMTQTTSSLSASLGDRVTISCRASQDINTYLNWYQQKPDGTVKLLIYYTSRLHSGVPSRFSGSGSGTDYSLTISNLEQEDIATYFCQQGNTLPWTFGGGTKLEIK
notes: Parental mouse antibody; also called S7-10B5.1; mouse anti-human Siglec-7 antibody
- Kd [1]: 1.24 nM
- koff [1]: 0.000242 s⁻¹
- kon [1]: 195000 M⁻¹ s⁻¹

B2: S7AB-H1 (antibody, V domains shown)
VH: QVQLVQSGAEVKKPGASVKVSCKASGYAFTNCWMNWVRQAPGQGLEWMGRIFPGNGHTNYAQKFQGRVTMTRDTSTSTVYMELSSLRSEDTAVYYCARDYSDYYFDYWGQGTLVTVSS
VL: DIQMTQSPSSLSASVGDRVTITCRASQDINTYLNWYQQKPGKAPKLLIYYTSRLHSGVPSRFSGSGSGTDFTLTISSLQPEDFATYYCQQGNTLPWTFGQGTKLEIK
- EC50 [2]: 4.6 nM

B8: S7AB-H7 (antibody, V domains shown)
VH: B2 VH with V20I, M48I, V68A, M70L, R72E, V79A
VL: B2 VL
- EC50 [2]: 3.3 nM

B10: S7AB-H8.41 (antibody, V domains shown)
VH: B2 VH with N31E, C32T, M48I, N55L, V68A, M70L, R72E, V79A
VL: B2 VL with A25G, F71Y, T93I
- Kd [4]: 0.531 nM
- fold improvement over S7AB-H8 [4]: 2 fold
- koff [4]: 9.12e-05 s⁻¹
- kon [4]: 172000 M⁻¹ s⁻¹
- Fold increase in potency compared to AB-H8 [5]: 3.2 fold
- Fold increase in potency compared to Chimeric Ab [5]: 9.5 fold
- Maximal downregulation (% Siglec-7 remaining) [5]: 9.6%
- Receptor downregulation, (EC50) (pM) [5]: 108 pM

B13: S7AB-H8.42 (antibody, V domains shown)
VH: B2 VH with N31M, C32A, M48I, N55Y, V68A, M70L, R72E, V79A
VL: B2 VL with A25G, F71Y, T93I
- Kd [4]: 0.126 nM
- fold improvement over S7AB-H8 [4]: 8.3 fold
- koff [4]: 2.42e-05 s⁻¹
- kon [4]: 191000 M⁻¹ s⁻¹
- Fold increase in potency compared to AB-H8 [5]: 5.4 fold
- Fold increase in potency compared to Chimeric Ab [5]: 16.4 fold
- Maximal downregulation (% Siglec-7 remaining) [5]: 3.3%
- Receptor downregulation, (EC50) (pM) [5]: 62.6 pM

B14: S7AB-H6 (antibody, V domains shown)
VH: B2 VH with M48I, R72E
VL: B2 VL with I2V, F71Y
- EC50 [2]: 1.6 nM

B15: S7AB-H8.40 (antibody, V domains shown)
VH: B2 VH with N31E, C32A, M48I, N55Y, V68A, M70L, R72E, V79A
VL: B2 VL with A25G, F71Y, T93V
- Kd [4]: 0.425 nM
- fold improvement over S7AB-H8 [4]: 2.5 fold
- koff [4]: 6.29e-05 s⁻¹
- kon [4]: 148000 M⁻¹ s⁻¹
- Fold increase in potency compared to AB-H8 [5]: 2.9 fold
- Fold increase in potency compared to Chimeric Ab [5]: 8.9 fold
- Maximal downregulation (% Siglec-7 remaining) [5]: 9.4%
- Receptor downregulation, (EC50) (pM) [5]: 115 pM

B16: S7AB-H2 (antibody, V domains shown)
VH: B2 VH
VL: B2 VL with F71Y
- EC50 [2]: 1.8 nM

B17: S7AB-H4 (antibody, V domains shown)
VH: B2 VH with M48I, R72E
VL: B2 VL
- EC50 [2]: 3.2 nM

B19: S7AB-H3 (antibody, V domains shown)
VH: B2 VH
VL: B2 VL with I2V, F71Y
- EC50 [2]: 1.6 nM

B20: S7AB-H5 (antibody, V domains shown)
VH: B2 VH with M48I, R72E
VL: B2 VL with F71Y
- EC50 [2]: 1.1 nM

B22: S7AB-H8.43 (antibody, V domains shown)
VH: B2 VH with N31G, C32Y, M48I, N55L, V68A, M70L, R72E, V79A
VL: B2 VL with A25G, F71Y, T93I
notes: also called S7AB-H.43
- Kd [4]: 0.256 nM
- fold improvement over S7AB-H8 [4]: 4.1 fold
- koff [4]: 5.84e-05 s⁻¹
- kon [4]: 228000 M⁻¹ s⁻¹
- Fold increase in potency compared to AB-H8 [5]: 10.2 fold
- Fold increase in potency compared to Chimeric Ab [5]: 30.8 fold
- Maximal downregulation (% Siglec-7 remaining) [5]: 17.1%
- Receptor downregulation, (EC50) (pM) [5]: 33.2 pM

Other lines, results leading:

- Maximal downregulation (% Siglec-7 remaining) [3]: 2.9%
- Receptor downregulation, (pM, EC50) [3]: 68.6 pM
B3: S7AB-H8.44 huIgG1 N297A (antibody, V domains shown)
VH: B2 VH with N31A, C32A, M48I, N55L, V68A, M70L, R72E, V79A
VL: B2 VL with A25G, F71Y, T93I

- Maximal downregulation (% Siglec-7 remaining) [3]: 2.8%
- Receptor downregulation, (pM, EC50) [3]: 67.3 pM
B4: S7AB-H8.44 huIgG1 LALAPS (antibody, V domains shown)
VH: B2 VH with N31A, C32A, M48I, N55L, V68A, M70L, R72E, V79A
VL: B2 VL with A25G, F71Y, T93I

- Maximal downregulation (% Siglec-7 remaining) [3]: < 0.1%
- Receptor downregulation, (pM, EC50) [3]: 9.1 pM
B5: S7AB-H8.44 huIgG1 SELF (antibody, V domains shown)
VH: B2 VH with N31A, C32A, M48I, N55L, V68A, M70L, R72E, V79A
VL: B2 VL with A25G, F71Y, T93I

- Maximal downregulation (% Siglec-7 remaining) [3]: 2.8%
- Receptor downregulation, (pM, EC50) [3]: 43.8 pM
B6: S7AB-H8.44 huIgG2 (antibody, V domains shown)
VH: B2 VH with N31A, C32A, M48I, N55L, V68A, M70L, R72E, V79A
VL: B2 VL with A25G, F71Y, T93I

- Maximal downregulation (% Siglec-7 remaining) [3]: 1%
- Receptor downregulation, (pM, EC50) [3]: 33.6 pM
B7: S7AB-H8.44 huIgG1 (antibody, V domains shown)
VH: B2 VH with N31A, C32A, M48I, N55L, V68A, M70L, R72E, V79A
VL: B2 VL with A25G, F71Y, T93I

- Kd [4]: 0.198 nM
- fold improvement over S7AB-H8 [4]: 5.3 fold
- koff [4]: 3.71e-05 s⁻¹
- kon [4]: 188000 M⁻¹ s⁻¹
- Fold increase in potency compared to AB-H8 [5]: 5.6 fold
- Fold increase in potency compared to Chimeric Ab [5]: 16.7 fold
- Maximal downregulation (% Siglec-7 remaining) [5]: 3.6%
- Receptor downregulation, (EC50) (pM) [5]: 61.2 pM
B9: S7AB-H8.44 (antibody, V domains shown)
VH: B2 VH with N31A, C32A, M48I, N55L, V68A, M70L, R72E, V79A
VL: B2 VL with A25G, F71Y, T93I

- Kd [4]: 0.444 nM
- fold improvement over S7AB-H8 [4]: 2.4 fold
- koff [4]: 7.55e-05 s⁻¹
- kon [4]: 170000 M⁻¹ s⁻¹
- Fold increase in potency compared to AB-H8 [5]: 3.4 fold
- Fold increase in potency compared to Chimeric Ab [5]: 10.4 fold
- Maximal downregulation (% Siglec-7 remaining) [5]: 6.9%
- Receptor downregulation, (EC50) (pM) [5]: 98.6 pM
B11: S7AB-H8.45 (antibody, V domains shown)
VH: B2 VH with N31E, C32A, M48I, N55Y, V68A, M70L, R72E, V79A
VL: B2 VL with A25G, F71Y, T93I

- EC50 [2]: 1.5 nM
- Kd [1]: 0.74 nM
- koff [1]: 0.000112 s⁻¹
- kon [1]: 150000 M⁻¹ s⁻¹
- Receptor downregulation, (EC50) (pM) [6]: 432 pM
B12: S7AB-H9 (antibody, V domains shown)
VH: B2 VH with V20I, M48I, V68A, M70L, R72E, V79A
VL: B2 VL with I2V, F71Y

- EC50 [2]: 1.2 nM
- Kd [1]: 1.07 nM
- koff [1]: 0.000172 s⁻¹
- kon [1]: 160000 M⁻¹ s⁻¹
- Receptor downregulation, (EC50) (pM) [6]: 411 pM
B18: S7AB-H11 (antibody, V domains shown)
VH: B2 VH with V20I, M48I, V68A, M70L, R72E, V79A, V114L
VL: B2 VL with F71Y

- EC50 [2]: 6.3 nM
B21: S7AB-H10 (antibody, V domains shown)
VH: B2 VH with V20I, M48I, V68A, M70L, R72E, V79A, V114L
VL: B2 VL

From patent US20210246204A1 (Alector, published 2021)
